# ± gives the standard deviation of the averaged measurements.
# B1: library; a variant is named by its letters at N, in order (parent)
# chain: GCUGUCACCGAGAAACUGUGAAGUAUAUCUUAAACCUGGGCACUUAAAAGAUAUAUGGAGUUAGUAGUGCAACCUGCUCGGUCUGAUGAGUCCNNNNNNGGACGAAACAGC
# Key:
# [1] = variants of: B1; experiment: FACS-Seq fitted mean relative fluorescence mCherry/BFP without ligand (log10 relative fluorescence); HEK293T; ligand: cyclic di-GMP (c-di-GMP-II aptamer); higher = higher reporter protein expression; conditions: ligand present: no
# Procedure, shortened: (§1)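 Enriched HEK293T cells carrying, by lentivirus, an mCherry reporter with the ribozyme switch and an EF1α-BFP marker spent 48 h with or without ligand and were sorted into 6 bins by mCherry/BFP. MiSeq sequencing of PCR-amplified bin genomic DNA gave bin counts. Fluorescence was calculated as the fitted normal mean of those counts. Counts were binned on log10(mCherry/BFP), and means were scaled to five spiked-in control ribozymes.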
# [2] = variants of: B1; experiment: normalized RNA/DNA level without ligand (relative to sTRSVctl = 100) (log10 (% of sTRSVctl)); HEK293T; ligand: cyclic di-GMP (c-di-GMP-II aptamer); higher = less ribozyme self-cleavage, higher mRNA level; conditions: reporter: mCherry (pCS4076), ligand present: no
# Experimental: (§2)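 Hammerhead (sTRSV) ribozyme switch libraries with a ligand aptamer grafted on stem I and a randomized N4-6 loop II, cloned into the 3' UTR of mCherry and transiently transfected into HEK293T cells; RNA-Seq 72 h post transfection with ligand added 1 h before transfection; RNA read count / plasmid DNA read count normalized to the non-cleaving sTRSVctl (x100), log10; sequences with >100 DNA reads. FACS-Seq: lentiviral library sorted into 6 bins after 48 h ligand, log-normal fit mean of mCherry/BFP scaled to controls. Printed sequences are partial switch sequences.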
# [3] = variants of: B1; experiment: FACS-Seq fitted mean relative fluorescence mCherry/BFP with ligand (log10 relative fluorescence); HEK293T; ligand: cyclic di-GMP (c-di-GMP-II aptamer); ligand concentration (+) FACS-Seq: 1 mM; higher = higher reporter protein expression; conditions: ligand present: yes
# Procedure, shortened: as §1
# [4] = variants of: B1; experiment: normalized RNA/DNA level with ligand (relative to sTRSVctl = 100) (log10 (% of sTRSVctl)); HEK293T; ligand: cyclic di-GMP (c-di-GMP-II aptamer); ligand concentration (+) RNA-Seq: 1 mM; higher = less ribozyme self-cleavage, higher mRNA level; conditions: reporter: mCherry (pCS4076), ligand present: yes
# Experimental: as §2
Variant,FACS-Seq fitted mean (log10) [1],normalized RNA/DNA level without ligand (log10) [2],FACS-Seq fitted mean (log10) [3],normalized RNA/DNA level with ligand (log10) [4]
CAGACU,-0.00398 ± 0.14,1.584 ± 0.0086,0.149 ± 0.04,1.72 ± 0.1
GCAAGC,-0.589 ± 0.17,1.63 ± 0.026,-0.514 ± 0.15,1.81 ± 0.14
UAUGAU,-0.525 ± 0.18,1.597 ± 0.0092,-0.0494 ± 0.041,1.79 ± 0.12
UAUGAA,-0.265 ± 0.024,1.64 ± 0.018,-0.0026 ± 0.016,1.78 ± 0.08
UAUGAC,-0.234 ± 0.026,1.71 ± 0.057,0.133 ± 0.1,1.87 ± 0.1
GAUGUA,-0.456 ± 0.056,1.662 ± 0.0051,-0.166 ± 0.016,1.77 ± 0.11
GAGAUU,-0.388 ± 0.22,1.71 ± 0.035,-0.0338 ± 0.038,1.82 ± 0.1
CAUCAA,-0.3769 ± 0.0032,1.32 ± 0.035,-0.0581 ± 0.076,1.57 ± 0.057
AAGCCU,0.14 ± 0.18,1.705 ± 0.014,0.3704 ± 0.0037,1.84 ± 0.11
AAGCCA,-0.228 ± 0.096,1.63 ± 0.029,-0.278 ± 0.12,1.79 ± 0.16
CAGCAA,-0.468 ± 0.048,1.36 ± 0.094,-0.2496 ± 0.00056,1.51 ± 0.061
AAGGUG,-0.189 ± 0.0061,1.51 ± 0.072,0.04 ± 0.083,1.69 ± 0.11
AAGGUU,-0.341 ± 0.089,1.59 ± 0.022,-0.152 ± 0.091,1.8 ± 0.1
AAGGUA,-0.681 ± 0.028,1.4 ± 0.091,-0.372 ± 0.038,1.57 ± 0.13
CAGAUA,-0.713 ± 0.024,1.23 ± 0.053,-0.483 ± 0.0048,1.43 ± 0.065
CAGGAA,-0.629 ± 0.038,1.4 ± 0.099,-0.392 ± 0.12,1.51 ± 0.051
UCAAUA,-0.525 ± 0.048,1.4 ± 0.085,-0.157 ± 0.078,1.63 ± 0.089
UCAAUU,-0.69 ± 0.034,1.585 ± 0.0066,-0.175 ± 0.22,1.77 ± 0.13
UCAAUG,-0.476 ± 0.064,1.51 ± 0.12,-0.188 ± 0.01,1.78 ± 0.027
UAGUAU,-0.121 ± 0.12,1.61 ± 0.028,0.192 ± 0.1,1.78 ± 0.064
UAUAUC,-0.579 ± 0.13,1.71 ± 0.018,-0.583 ± 0.2,1.85 ± 0.12
ACAAUU,-0.5008 ± 0.0033,1.32 ± 0.093,-0.2 ± 0.0047,1.52 ± 0.089
ACAAUG,-0.431 ± 0.026,1.39 ± 0.15,-0.0705 ± 0.082,1.66 ± 0.098
ACAAUA,-0.5113 ± 0.0047,1.33 ± 0.094,-0.23 ± 0.047,1.55 ± 0.14

Variant,FACS-Seq fitted mean (log10) [1],normalized RNA/DNA level without ligand (log10) [2],FACS-Seq fitted mean (log10) [3],normalized RNA/DNA level with ligand (log10) [4]
ACAAUC,-0.873 ± 0.017,1.49 ± 0.043,-0.61 ± 0.16,1.7 ± 0.15
CCAAUG,-0.6462 ± 0.0011,1.23 ± 0.16,-0.334 ± 0.017,1.49 ± 0.018
CCAAUA,-0.5437 ± 0.0029,1.36 ± 0.12,-0.271 ± 0.066,1.59 ± 0.11
CAGCCA,-0.196 ± 0.089,1.42 ± 0.05,0.0333 ± 0.08,1.67 ± 0.14
AAUAGA,-0.609 ± 0.01,1.39 ± 0.12,-0.411 ± 0.015,1.58 ± 0.08
AAUAGU,-0.33379 ± 0.00027,1.6 ± 0.034,0.0812 ± 0.061,1.74 ± 0.11
AAUAGG,-0.474 ± 0.0071,1.5 ± 0.069,-0.162 ± 0.0064,1.68 ± 0.12
GAUCAU,-0.326 ± 0.12,1.63 ± 0.051,-0.0439 ± 0.023,1.79 ± 0.14
GAUCAA,-0.23 ± 0.07,1.57 ± 0.054,0.0757 ± 0.065,1.75 ± 0.052
AAGAGA,-0.637 ± 0.058,1.33 ± 0.078,-0.296 ± 0.066,1.54 ± 0.094
AAGAGG,-0.546 ± 0.022,1.53 ± 0.052,-0.313 ± 0.016,1.68 ± 0.15
AAUGAA,-0.0795 ± 0.021,1.46 ± 0.097,0.113 ± 0.065,1.63 ± 0.097
AAUGAG,-0.328 ± 0.065,1.54 ± 0.048,0.0671 ± 0.032,1.71 ± 0.093
AAUGAU,-0.104 ± 0.17,1.581 ± 0.0096,0.206 ± 0.048,1.76 ± 0.034
ACACAG,-0.515 ± 0.016,1.44 ± 0.084,-0.191 ± 0.074,1.68 ± 0.11
GAGCUG,0.303 ± 0.085,1.82 ± 0.078,0.439 ± 0.013,1.89 ± 0.1
CAGCUU,-0.396 ± 0.075,1.62 ± 0.095,-0.151 ± 0.049,1.75 ± 0.091
CAGCUG,0.189 ± 0.018,1.767 ± 0.0057,0.403 ± 0.038,1.84 ± 0.12
CAGCUA,-0.432 ± 0.009,1.37 ± 0.077,-0.148 ± 0.079,1.56 ± 0.076
AAGCGA,-0.459 ± 0.0051,1.44 ± 0.1,-0.202 ± 0.029,1.65 ± 0.13
UAUAAA,-0.114 ± 0.051,1.66 ± 0.026,0.111 ± 0.097,1.79 ± 0.13
GAUUAA,-0.0108 ± 0.066,1.55 ± 0.057,0.211 ± 0.1,1.74 ± 0.087
UAGUCC,0.148 ± 0.14,1.72 ± 0.1,0.203 ± 0.041,1.85 ± 0.086
GAUAAA,-0.481 ± 0.013,1.47 ± 0.065,-0.1618 ± 0.00059,1.63 ± 0.1

Variant,FACS-Seq fitted mean (log10) [1],normalized RNA/DNA level without ligand (log10) [2],FACS-Seq fitted mean (log10) [3],normalized RNA/DNA level with ligand (log10) [4]
GAUAAU,-0.142 ± 0.21,1.59 ± 0.068,0.0798 ± 0.079,1.75 ± 0.075
CAUCCA,-0.794 ± 0.028,1.44 ± 0.016,-0.5192 ± 0.002,1.696 ± 0.011
CAUGGA,-0.378 ± 0.071,1.52 ± 0.052,-0.00583 ± 0.069,1.74 ± 0.077
AAGCAC,-0.391 ± 0.077,1.678 ± 0.0034,-0.0705 ± 0.025,1.82 ± 0.11
AAGCAA,-0.642 ± 0.0094,1.56 ± 0.039,-0.454 ± 0.097,1.72 ± 0.062
GCAACA,-0.823 ± 0.12,1.55 ± 0.048,-0.56 ± 0.014,1.75 ± 0.12
CAGUUA,-0.724 ± 0.01,1.28 ± 0.15,-0.4923 ± 0.0038,1.42 ± 0.041
CAGUUC,-0.4497 ± 0.0028,1.66 ± 0.038,-0.1164 ± 0.00072,1.82 ± 0.097
CAGUUU,-0.341 ± 0.0054,1.5 ± 0.0081,-0.0345 ± 0.033,1.67 ± 0.12
GAUGGA,-0.376 ± 0.014,1.42 ± 0.14,-0.11 ± 0.031,1.61 ± 0.097
GAGCGU,-1.38 ± 0.089,1.814 ± 0.0041,-1.2 ± 0.013,1.9 ± 0.052
GAGCGC,-0.228 ± 0.14,1.79 ± 0.049,-0.101 ± 0.16,1.83 ± 0.082
AAUAAA,-0.411 ± 0.041,1.47 ± 0.097,-0.166 ± 0.054,1.69 ± 0.069
AAGUUA,-0.499 ± 0.08,1.529 ± 0.0062,-0.215 ± 0.06,1.74 ± 0.14
UAUGGU,-0.169 ± 0.095,1.569 ± 0.014,0.0872 ± 0.053,1.76 ± 0.11
AAUGGG,-0.71 ± 0.015,1.4 ± 0.11,-0.453 ± 0.035,1.57 ± 0.076
AAUGGC,-0.236 ± 0.066,1.65 ± 0.033,0.153 ± 0.011,1.81 ± 0.061
AAUGGA,-0.46 ± 0.012,1.36 ± 0.11,-0.114 ± 0.0052,1.55 ± 0.066
CAUCUC,-0.977 ± 0.064,1.74 ± 0.051,-0.802 ± 0.028,1.86 ± 0.11
UAGGAA,-0.246 ± 0.044,1.49 ± 0.07,-0.00386 ± 0.085,1.68 ± 0.16
AAGGGA,-0.6377 ± 0.005,1.38 ± 0.072,-0.444 ± 0.023,1.5 ± 0.13
AAGGGU,-0.547 ± 0.0094,1.53 ± 0.091,-0.278 ± 0.052,1.7 ± 0.061
AAGGGG,-0.499 ± 0.044,1.47 ± 0.087,-0.103 ± 0.12,1.63 ± 0.1

# Source: the supplement of paper PMC6757056
